Assay results published in paper PMC5783996.

Molecular target: Botryococcus braunii light-harvesting complexes (BB LHCII), apoproteins of the trimeric fraction B3 (Botryococcus braunii (endogenous in strain CCALA778 thylakoids))
Assay: sucrose density gradient ultracentrifugation; thylakoids solubilised with 1% α-DM (also OG) at room temperature, complexes separated on a sucrose density gradient; bands assigned by position (MW)

- stoichiometry N: 3
Substance: Botryococcus braunii light-harvesting complexes (BB LHCII), apoproteins of the trimeric fraction B3
